1 molecule from PMC12678811 can be followed below.

Assay [1] has as its target secretin receptor (SCTR) (mouse (endogenous in mouse jejunal ICC-DMP)) (UniProt Q5FWI2).
For assay [2] the target is unchanged. This is another data set of the same source.
For assay [3] the target is unchanged. This is another data set of the same source.

Sequence of UniProt Q5FWI2 (Q5FWI2 29-447): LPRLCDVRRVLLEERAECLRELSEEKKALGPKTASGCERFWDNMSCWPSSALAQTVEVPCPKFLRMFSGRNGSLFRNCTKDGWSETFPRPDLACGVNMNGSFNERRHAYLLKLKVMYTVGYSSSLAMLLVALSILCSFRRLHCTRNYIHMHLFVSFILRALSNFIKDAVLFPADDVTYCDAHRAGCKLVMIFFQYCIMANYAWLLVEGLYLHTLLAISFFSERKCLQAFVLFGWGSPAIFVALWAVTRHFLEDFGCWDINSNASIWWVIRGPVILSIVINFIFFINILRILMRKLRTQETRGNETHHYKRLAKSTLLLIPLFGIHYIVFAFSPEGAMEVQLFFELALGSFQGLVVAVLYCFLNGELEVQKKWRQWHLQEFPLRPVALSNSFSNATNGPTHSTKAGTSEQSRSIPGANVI

In assay [1], HSDGTFTSELSRLREGARLQRLLQGLV [Secretin, human] showed a Ca2+ transients in ICC-DMP (GCaMP6f), area of events, secretin 100 nM with TTX 1 uM of 0.57 μm·s and a Ca2+ transients in ICC-DMP (GCaMP6f), spatial spread, secretin 100 nM with TTX 1 uM of 3.1 μm. The cAMP level in ICC-DMP, FRET ratio (mTurquoise/Venus) of the CAMPER sensor, secretin 100 nM in assay [2] was 108 % of control. In assay [3], the contractions of murine jejunal muscle strips, amplitude, secretin 100 nM with TTX 1 uM was 53.3 % of control; the contractions of murine jejunal muscle strips, area under the curve, secretin 100 nM with TTX 1 uM is 46.4 % of control; the spontaneous contractions of murine jejunal muscle strips, area under the curve, secretin 100 nM, control conditions was 45.6 % of control; the spontaneous contractions of murine jejunal muscle strips, contractile amplitude, secretin 100 nM, control conditions was 61.3 % of control.
